Target: the molecule itself
Assay: solution structural model from NMR PRE distance restraints and SANS (M3 data-driven docking with HADDOCK); 145 PRE-derived distance restraints and six SANS curves; building blocks PDB 2hue and MD conformers of PDB 3q66; 33 structures, pairwise backbone RMSD 2.0 A; 50 mM citrate pH 6.5, 150 mM NaCl, 298 K

B1: Vps75 (vacuolar protein sorting-associated protein 75) homodimer (natural protein, S. cerevisiae, UniProt P53853 1-264, looked up)
chain: MMSDQENENEHAKAFLGLAKCEEEVDAIEREVELYRLNKMKPVYEKRDAYIDEIAEFWKIVLSQHVSFANYIRASDFKYIDTIDKIKVEWLALESEMYDTRDFSITFHFHGIEGDFKEQQVTKVFQIKKGKDDQEDGILTSEPVPIEWPQSYDSINPDLIKDKRSPEGKKKYRQGMKTIFGWFRWTGLKPGKEFPHGDSLASLFSEEIYPFCVKYYAEAQRDLEDEEGESGLSADGDSEDDDGSLGEVDLPLSDEEPSSKKRKV
notes: Vps75, S. cerevisiae, full length; the C-terminal acidic domain (CTAD) is 226-264; isotope-labelled (ILV methyl, 15N, 2H) in some samples; also called Vps75_(2); ScVps75; source: E. coli BL21(DE3), purified (IMAC, TEV cleavage, ion exchange, SEC); not shown: His6, N-terminal, cleaved
  stoichiometry N: 2 subunits

Source: PMC6684614, “Histone chaperone exploits intrinsic disorder to switch acetylation specificity” (Nature Communications, 2019)
